These results are taken from the DeepSol protein solubility set.

This series in a line: soluble on expression in E. coli; label from the status in PepcDB or PDB records.
On to “MAHHHHHHMTDASKYKKLTPIDHVLLRPEMYVGSIETQPTPMYIFDPEKGRMVWETMRVNQGLLKIVDEILLNAADNINNSKGSVRQTYINIHISDTGEITVENDGAGLPIVRSREHKMYIPEMVFGHLLTSSNYNNDSTSTTAGRHGYGAKLTNILSTKFSVVCRTDGREFHMSWTDHMRMATAPRVNRVDPKEKNVTRVKFMPDYAHFGFPSASISLDMKRVLHKRVMDLAAMFSKIEVRLNNVPFGFRTFTDYAGLYSLPGLDGSMPPEPFVYTSPNGSVAYVPQLTQSPKRIVSVVNGVVTYNGGTHCNAAMDILDACLDSLSKNFKKNGKVVDTNRVQRHFTVLVFLVQAQPKFDSQSKARLVSTVTMPRVPKNTLEKYLERMPFLEAHVNSMDDQLTNELNKEIGAGRRLSSKTLISSITKLVDATSSRPDGRNIRTLIITEGDSAKALALNSLSSEQKKYCGVFPLRGKLLNVRNKNLKRLKTCKELQDLFLSLGLELGKEYRSPAELRYQRLLVMTDQDADGSHIKGLVINAFESLWPKLLQNNPGYISLFSTPIVKIKVSGKSKEAIAFHSFRDFHRWQRAHPSARYTAKYYKGLGTSTTAEGKEYFADMEKNVMQLTVDARDHQLLDSVFDAAEVEWRKEWMTKANAFQGEVDIDRSKKTLTIPEFVHKEMVHFALVGNARAIPHCVDGLKPSQRKILWAMLRRHNSEASKVAQLSGYISEASAFHHGEASLQETIVKMAQNFTGGNNINLLVPEGQFGSRQQLGSDHAAPRYIFTKLSRFARLLFPEEDDPLLDYMDEEGTFVEPHHYVPILPMLLCNGAVGIGFGFATTIPSFHPLDVSAAVRAMINGESAKQVVRNLVPWAVGFQGTVRRGPDNEFIAVGKYTAHPNGRFHISEIPWMTSIEAFRLHISSLASADVVQRIADYSGANHIDIDLIVRDGSLTTWAECETDLALAQRIYINGTVFSPAGTLSPIDSDLSPVLQWHYDRRLDLYKRRRTRKIGLMEMDLARLQSTRKFVEHFRQGQIDFLNATDDTLHKTCVKLGLVRVDESFDYILKKPITFFTRTSTEKLQADIAKTQAQIEELKRTTPVKMWLTELDKFDKTFQEYERVLINSIQKEQRSSSITGGVELPALRQPLLLLEASVKGATAYRVHACQYEKPPPSKRRPGESFGGARSSDSAVRGVGKRLVGSRAVFKKKKPMGRKNNVKVSLSTRVAQFAGAQLGRLLPHILV”, for which the “soluble on expression in E. coli” value is “not soluble”.
Next, “MGSDKIHHHHHHMLHLNLLQVFISVAENSSFTLAGSEMHRTQSAISMKIKRLEEILGVPVFERSGKSIELTKEGAIFLTHSRRILQLVDEAMSAVGAVRKSNVVRLGCVEDYAVRTIPKILVDFWVEHPDVHIEMGTGDSASLLDRLGDDFDVVLAEHPLNSGEGEVVCTDSLVWGASANHSPHLQEPIPVAFRSQGALERQWACSALNAAGRPWRLACLSAGIGTLQTAVDAGLAVGVFKASTLAGALNRLTPADNFPQLPDVEMALHVMNDGFSQPSIMQLVKKLRESLQRPQLAAAHE”: “not soluble”.
With “MGSDKIHHHHHHMEISDIIYGQHHIDGVLEELIKSAPVQRLKGIYQGGASFLVNRKWNVTRYEHSIGVMLLIKKLGGTIEEQIAGLLHDVSHTAFSHVVDVVFENQAEDYHENIFQQVIVHSEIPDILQKHGYHTEELLSDDSRWTLLEQPAPELCADRTDYTLRDMYRYGHINLHEAQTFLDHLIVRNGRMFPDSIEAAEWFVSVYYKEVIDFFLNPVNVYGYEYLARALKAALRHDVISAEDLLKTDQEVLNILRASKNEEVLSLLTSIHPGIQVIEDDIQYDFHQKKKMRLIDPSIFLDDKWIKSSGVSEKVRKMGEAAYQKAKKGVYIKILKQ”, the “soluble on expression in E. coli” value was “not soluble”.
Next, “MDSMDHRIERLEYYIQLLVKTVDMDRYPFYALLIDKGLSKEEGEAVMRICDELSEELATQKAQGFVTFDKLLALFAGQLNEKLDVHETIFALYEQGLYQELMEVFIDIMKHFD”: “soluble”.
Next, “MKTDRLLADTKTIRYEETDLASLISAPYHFRCGIYLICTQGEAVVSTGVQKYIFNEQTELIFLTGGLLQVLETSGDLQVKMLMFPKEAFLNAMLPIDTPYFNYTHEHPCYHHTADERSQKTWRQINLWMDMAQMLFTEPMPQFRGQQEHNFLQSLLMWLFNTIPEKLAVSKQYSRTQLLCHRFMQLIREYSMHEHQVAFYAEKLCISSRYLHKITVRHLDGKKPKQLIDEQLVAEIKVLLNEPRLSVTEIAEQLHFPDQSYLTHFFKKNTGISPKEFRAIKNLG”: “not soluble”; “MGSDKIHHHHHHMKITWFGHACFALEMEGKTIVTDPFDESVGYPIPNVTADVVTESHQHFDHNAHHLVKGNFRVIDRPGAYTVNGVKIKGVETFHDPSHGRERGKNIVFVFEGEGIKVCHLGDLGHVLTPAQVEEIGEIDVLLVPVGGTYTIGPKEAKEVADLLNAKVIIPMHYKTKYLKFNLLPVDDFLKLFDSYERVGNILELFEKPKERKVVVMEVQ”: “soluble”.
With “MSLENVTMGFWYVSPRRGPHRTTRQISAGTWEEVRPNYTTPVADAMDRLMKTTPEDIAGRLLLLHGPPGTGKTSALRTLARSWRDWCQVDCVLDPERLFSDVGYLMDIAIGEEDGTGKGRWRLLLLEDCDELIRGEAKHTAGQALSRLLNLTDGLLGQGRNVLVGVTTNEDLERLHPAVVRPGRCLARIEVGPLTRREAVNWLGTEEGVGREGATLAELYALRRGTSPTSLPEPREGAEGHHHHHH” the entry was “soluble”; with “AHHHHHHASAKWVCKICGYIYDEDAGDPDNGISPGTKFEELPDDWVCPICGAPKSEFEKLEDGSACYSSSPEVIVLREYLLIKIHEDGVIKIPQELAYEVGLVKGAYFLVEIDTDIKELHVERVALPGKKLVEIELVVEDKPGVLAKIAGILGKNGINILFNEAEELESLGLSAIVAVVDVSGAKISLKDLESTLKEINEVKEVKIVEIE”, “soluble”; with “MGHHHHHHGGHMSLPKFSPCLWFNTQAEEAANFYTTIFEKGAILSKTNYVNEEHQPQGTSLMTIEFTLANQTIIGLNGGPEFSFTPASSFFVECTTLPQTETLWKNLTADGQILMPFGEYPFSPLYGWVVDKFGVSWQVSFSGKEQTIVPTFMFANEKYGEAAKALSEWLAIFGPGEIIEKVEYEDGNIAQALFTLQEQPFRVMDARDKHDFDFTMAFSIYIDCENQEEIDRLWQQVTAKGKEWPCGWMEDQFGVSWQTGNPELKRYLSDSNPARANEVTKKLYQMKKIDLNQLKEVYDKYNHEGGS”, “soluble”.
With “MRLNIVVVGVGGQGALTTSGIIARAAMRAGLNVVTAETHGMAQRGGSVEVHVRIGDVRAPLIPEGGADVMIALEPAEALRYAKFLNKNTLVILNTRKIIPPSVTAGTAKYPELDEIIGELRKVTPRVIPVNASEIAEKAGSVLATNVVVVGMLFGYYSMPFGIEHVEEAIRETMKSKIVDLNLKALKMGYNQAI”, the “soluble on expression in E. coli” value is recorded as “not soluble”.
Consider “MTVDFYSFAKGIVKGVLTPFYRIQTIGIEQFPKEGGVLLCANHISNLDPPVIGITAPRPIRFMAKEELFRAPVVKTLVKSLHAFPVKRGMNDRQALRTGLEVLKQGEVLGIFPEGTRSKDGRLKKALPGVGFFALRTDAAVVPCAIVGPYRPFVPLKVVYGAPVDMAPLRARKASPEEAADYIMDHIRRLLEEHQRA”, for which the “soluble on expression in E. coli” value was “not soluble”.
With “MIRLSEQSPLGTGRHRKCYAHPEDAQRCIKIVYHRGDGGDKEIRRELKYYAHLGRRLKDWSGIPRYHGTVETDCGTGYVYDVIADFDGKPSITLTEFAEQCRYEEDIAQLRQLLKQLKRYLQDNRIVTMSLKPQNILCHRISESEVIPVVCDNIGESTLIPLATWSKWCCLRKQERLWKRFIAQPALAIALQKDLQPRESKTLALTSREALEHHHHHH” the entry was “not soluble”.
With “MTKEEMRNAILDIFQSNPQSVMNYKQVSHLMGVEAAPQKLMVNSLMEDMAVDDILHEIERGRYRYNALGLIVIGTFERRFNGRNSFIPEGGGTPIFIAERNSAHAMDGDKVKVQLFAKRRGRAPEAAVIEIIEQKQATFVGKIQINRDFAFLVTEDRTLANDIFIPKDNLGNAKNGDKVIVRILEWPEQSKNPIGEVQAVLGPAGDNDAEMNAILAEFGLPYVYPQEVEEAADRLDGKITEEELARREDFRSILTFTIDPKDAKDFDDAISFRPLEDDCYEVGVHIADVSHYVTEGGIIDQEAYNRATSIYLVDRTIPMLPERLCNDLCSLRPDEEKYAYSCIFRMNDEAKVLDYRICHSVIKSDRRFAYEEAQAVIETGEGDCKEAILKLNELAQRLRKERFQNGAIAFERKEVRFEIDEKGRPLGVIVKESKEANKLIEEFMLLANRTVARHIGEETQGKRAKTFVYRIHDLPDPDKLETLSDFIRRFGYKLRTTGSNVEVSKSINSLLDNIQNKPEENLISTVAIRSMAKAIYSTDNIGHYGLAFDFYTHFTSPIRRYPDLMVHRLLTKYLSGGSSVDKNDYEEKCKHSSAMEQLAASAERASIKYKQVEFMSEHLGKVFDGVISGVTEWGLYVELKENMCEGLIPIRCLDDDYYEYDDKNFCLIGRRYRHRYSLGDAITVRVAQANLDRKQLDFEPVS” the entry was “not soluble”; with “MASISRARQVELLLVADASMARKYGRGLQHYLLTLASIANRLYSHASIENHIRLAVVKVVVLGDKDKSLEVSKNAATTLKNFCKWQHQHNQLGDDHEEHYDAAILFTREDLCGHHSCDTLGMADVGTICSPERSCAVIEDDGLHAAFTVAHEIGHLLGLSHDDSKFCEETFGSTEDKRLMSSILTSIDASKPWSKCTSATITEFLDDGHGNCLLDLPRKQI”, “soluble”.
Next, “SVACLSCRKRHIKCPGGNPCQKCVTSNAICEYLEPSKKIVVSTKYLQQLQKDLNDKTEENNRLKALLLER”: “soluble”; “MSLNKYEPLFKSLTLPNGVEVRNRFVLAPLTHTSSNDDGTISDIELPYIEKRSKDVGIAINAASNVNDVGKAFPGQPSVAHDSDIEGLKELAQVMKKNGAKAIVQIHHGGAQALPELTPDGDVVAPSAISLKSFGQQKEHDAREMTAEEIEQTIRDFGEATRRAIEAGFDGVEIHGANHYLIHQFVSPYYNRRNDVWADNYKFPVAVIDEVVKAKKAHAYDDFIIGYRLSPEEAESPGISMEITEELIHQIANKPLDYIHVSLMDVNSVTREGKYKGENRLELIHQWINGRMPLIGIGSVFTAEDALNAVENIGVEFVALGCEILLDYDFVAKIKEGREDEIINAFDPNREDQHYLTPNLWEQFNQGFYPLPRKDKEGHHHHHH”: “soluble”.
With “NAKVKRIRLGNLKKTVKLYDLIDEFHSTTLENLKNGLRTGRGYCIEINKQVVSMAKSTSENRTHAMIIGVGTHPKYRAKGLATKCLIKLCSELLRENKIPCLFYDNEEAGKIYKKLGFENIGKWGIYSK”, the “soluble on expression in E. coli” value is “not soluble”.
Next, “MVSHHNLTTGATLINEQWLLTTAKNLFLNHSENATAKDIAPTLTLYVGKKQLVEIEKVVLHPNYSQVDIGLIKLKQKVSVNERVMPICLPSKDYAEVGRVGYVSGWGRNANFKFTDHLKYVMLPVADQDQCIRHYEGSTVPEKKTPKSPVGVQPILNEHTFCAGMSKYQEDTCYGDAGSAFAVHDLEEDTWYATGILSFDKSCAVAEYGVYVKVTSIQDWVQKTIAEN”: “not soluble”; “MAHHHHHHMNGMRAYNLGSRRYHDVLRLQEAIFRKKIDRQMRYIRGDKSARLIPNVVLLVEHSSPVYTIGRRDTSNGIKAGCAAEVVKTRRGGGVTFHGPGQVTMYPIVNVQVLWKQCTASDKPRSPIEWFSSVLEQAMINVAGEYNIPAHRGRVGVWSDSWGDVAPRKMGFVGLQLGNWVSMHGAGLNVSNNLLYFNDIVMCEMPNEAATSLVEELRLRGLSGAEPTPHVIAPRLLHHFLLSMQQQESVVNTELVDLSIDGSWERSILCELE”: “not soluble”.
